Measured values taken from patent publication US20040063913A1 (Novartis, published 2004).
Values joined by “and” are separate entries in the source; they are usually repeats but may differ in a detail not shown here. Identical values can stand only once. One block for each binder: values may come before it.

Assays:
recombinant human IL-1β = target: T1, recombinant human IL-1β (human, UniProt P01584 117-269); test: Biacore competition: ACZ885 immobilized on the chip, recombinant human IL-1β (1 nM) injected with increasing soluble IL-1 receptor type I (0-12 nM); % binding of IL-1β to ACZ885; mean ± SEM, n=4
T1 construct: mature; also called Rec Human IL-1β; recombinant human IL-1beta
Experimental: Half-maximum values (IC₅₀) were determined graphically using the Origin 6.0 software The mean±SEM is given (n=4).

[1] = target: T2, IL-1β derived from rhesus monkeys (rhesus monkey, UniProt P48090 117-269); test: not named
T2 construct: also called rhesus IL-1β

[2] = target: naturally produced IL-1β in conditioned medium from peripheral blood mononuclear cells (human, UniProt P01584 117-269, limits assumed); test: cell-based or functional assay
Rec Cynomolgus IL-1β = target: T3, Rec Cynomolgus IL-1β (cynomolgus, UniProt P79182 117-268); test: Biacore, ACZ885 immobilized
T3 construct: also called Rec Cynomolgus IL-β; cynomolgous IL-1beta

Rec Human IL-1α = target: T4, Rec Human IL-1α (human, UniProt P01583 113-271); test: Biacore, ACZ885 immobilized
T4 construct: also called human IL-1alpha
T4 sequence (looked up): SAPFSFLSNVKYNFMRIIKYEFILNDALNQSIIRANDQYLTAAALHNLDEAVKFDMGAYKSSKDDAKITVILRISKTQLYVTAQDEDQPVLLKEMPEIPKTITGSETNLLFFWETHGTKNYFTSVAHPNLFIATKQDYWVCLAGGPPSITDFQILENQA

IC50 (recombinant human IL-1β): 0.68 nM
B1: recombinant human soluble IL-1 type I receptor (receptor, UniProt P14778 18-332, looked up)
chain: LEADKCKEREEKIILVSSANEIDVRPCPLNPNEHKGTITWYKDDSKTPVSTEQASRIHQHKEKLWFVPAKVEDSGHYYCVVRNSSYCLRIKISAKFVENEPNLCYNAQAIFKQKLPVAGDGGLVCPYMEFFKNENNELPKLQWYKDCKPLLLDNIHFSGVKDRLIVMNVAEKHRGNYTCHASYTYLGKQYPITRVIEFITLEENKPTRPVIVSPANETMEVDLGSQIQLICNVTGQLSDIAYWKWNGSVIDEDDPVLGEDYYSVENPANKRRSTLITVLNISEIESRFYKHPFTCFAKNTHGIDAAYIQLIYPVT
notes: Called soluble; also called soluble human IL-1 type I receptor; recombinant human soluble receptor I

binding result [1]: no binding
IC50, inhibition of IL-1β-induced IL-6 secretion from human dermal fibroblasts, cond. medium (NVP-ACZ885 Batch1) [2]: 54 pM and 9.1 ng/ml
IC50, inhibition of IL-1β-induced IL-6 secretion from human dermal fibroblasts, cond. medium (NVP-ACZ885 Batch2) [2]: 7.4 ng/mL
binding result (Rec Cynomolgus IL-1β): no binding (tested: 8 nM)
binding result (Rec Human IL-1α): no binding (tested: 8 nM)
B2: ACZ 885 antibody (antibody, human IgG1, V domains shown)
VH: QVQLVESGGGVVQPGRSLRLSCAASGFTFSVYGMNWVRQAPGKGLEWVAIIWYDGDNQYYADSVKGRFTISRDNSKNTLYLQMNGLRAEDTAVYYCARDLRTGPFDYWGQGTLVTVSS
VL: EIVLTQSPDFQSVTPKEKVTITCRASQSIGSSLHWYQQKPDQSPKLLIKYASQSFSGVPSRFSGSGSGTDFTLTINSLEAEDAAAYYCHQSSSLPFTFGPGTKVDIK
notes: also called NVP-ACZ885
